In patent US20100022459A1 (TEL AVIV UNIVERSITY FUTURE TECHNOLOGY DEVELOPMENT L P, published 2010):
Ends that are not written are not given here. cellulose membrane = cellulose membrane support bound via the C-terminal amino acid

B1: hIAPP3-12 (peptide)
peptide: Ac-NTATCATQRL
modifications: also: C-terminal residue bound to cellulose membrane
notes: 61-88; also called decamer of the hIAPP peptide array
B2: hIAPP2-11 (peptide)
peptide: Ac-CNTATCATQR
modifications: cysteine pairing not given here; also: C-terminal residue bound to cellulose membrane
notes: as for B1
B3: hIAPP23-32 (peptide)
peptide: Ac-FGAILSSTNV-{cellulose membrane}
notes: as for B1
B4: hIAPP28-37 (peptide)
peptide: Ac-SSTNVGSNTY-{cellulose membrane}
notes: as for B1
B5: hIAPP27-36 (peptide)
peptide: Ac-LSSTNVGSNT-{cellulose membrane}
notes: as for B1
B6: hIAPP12-21 (peptide)
peptide: Ac-LANFLVHSSN
modifications: also: C-terminal residue bound to cellulose membrane
notes: as for B1
B7: hIAPP18-27 (peptide)
peptide: Ac-HSSNNFGAIL-{cellulose membrane}
notes: as for B1
B8: hIAPP25-34 (peptide)
peptide: Ac-AILSSTNVGS-{cellulose membrane}
notes: as for B1
B9: hIAPP8-17 (peptide)
peptide: Ac-ATQRLANFLV
modifications: also: C-terminal residue bound to cellulose membrane
notes: as for B1
B10: hIAPP6-15 (peptide)
peptide: Ac-TCATQRLANF-{cellulose membrane}
notes: as for B1
B11: hIAPP17-26 (peptide)
peptide: Ac-VHSSNNFGAI-{cellulose membrane}
notes: as for B1
B12: hIAPP24-33 (peptide)
peptide: Ac-GAILSSTNVG-{cellulose membrane}
notes: as for B1
B13: hIAPP19-28 (peptide)
peptide: Ac-SSNNFGAILS
modifications: also: C-terminal residue bound to cellulose membrane
notes: as for B1
B14: hIAPP11-20 (peptide)
peptide: Ac-RLANFLVHSS
modifications: also: C-terminal residue bound to cellulose membrane
notes: as for B1
B15: hIAPP10-19 (peptide)
peptide: Ac-QRLANFLVHS
modifications: also: C-terminal residue bound to cellulose membrane
notes: as for B1
B16: hIAPP22-31 (peptide)
peptide: Ac-NFGAILSSTN-{cellulose membrane}
notes: as for B1
B17: hIAPP15-24 (peptide)
peptide: Ac-FLVHSSNNFG-{cellulose membrane}
notes: as for B1
B18: hIAPP9-18 (peptide)
peptide: Ac-TQRLANFLVH
modifications: also: C-terminal residue bound to cellulose membrane
notes: as for B1
B19: hIAPP14-23 (peptide)
peptide: Ac-NFLVHSSNNF-{cellulose membrane}
notes: as for B1
B20: hIAPP21-30 (peptide)
peptide: Ac-NNFGAILSST
modifications: also: C-terminal residue bound to cellulose membrane
notes: as for B1
B21: hIAPP4-13 (peptide)
peptide: Ac-TATCATQRLA-{cellulose membrane}
notes: as for B1
B22: hIAPP1-10 (peptide)
peptide: Ac-KCNTATCATQ
modifications: cysteine pairing not given here; also: C-terminal residue bound to cellulose membrane
notes: 61-88 (hIAPP1-10 ... hIAPP28-37); also called decamer of the hIAPP peptide array
B23: hIAPP5-14 (peptide)
peptide: Ac-ATCATQRLAN-{cellulose membrane}
notes: as for B1
B24: hIAPP7-16 (peptide)
peptide: Ac-CATQRLANFL
modifications: also: C-terminal residue bound to cellulose membrane
notes: as for B1
B25: hIAPP16-25 (peptide)
peptide: Ac-LVHSSNNFGA-{cellulose membrane}
notes: as for B1
B26: hIAPP13-22 (peptide)
peptide: Ac-ANFLVHSSNN-{cellulose membrane}
notes: as for B1
B27: hIAPP26-35 (peptide)
peptide: Ac-ILSSTNVGSN-{cellulose membrane}
notes: as for B1

What follows are binders tested against MBP (UniProt P0AEX9 27-392 = MBP) (assay: hIAPP peptide array incubated with MBP alone, immunoblot).
Experimental: The cellulose membrane was then washed repeatedly with 0.05% Tween 20 in TBS. […] HRP-conjugated goat anti mouse antibodies (Jackson Laboratories, USA) were used as a secondary antibody. Immunoblots were developed using the Renaissance western blot Chemiluminescence Reagent (NEN, USA) according to Manufacturer's instructions and signal was quantified using densitometry. Regeneration of the cellulose membrane for reuse was carried out by sequential washing with Regeneration buffer I including 62.5 mM Tris, 2% SDS, 100 Mm 2-mercaptoethanol, pH 6.7, and Regeneration buffer II including 8 M urea, 1% SDS, 0.1% 2-mercaptoethanol. Efficiency of the washing steps was monitored by contacting the membrane with the chemiluminescence reagent, as described.
B1: no binding. B2: no binding. B3: no binding. B4: no binding. B5: no binding. B6: no binding. B7: no binding. B8: no binding. B9: no binding. B10: no binding. B11: no binding. B12: no binding. B13: no binding. B14: no binding. B15: no binding. B16: no binding. B17: no binding. B18: no binding. B19: no binding. B20: no binding. B21: no binding. B22: no binding. B23: no binding. B24: no binding. B25: no binding. B26: no binding. B27: no binding.
